{
  "source": "paper PMC2583301",
  "key": {"[1]": {"molecular_target": "H2A refolded in the absence of H2B (Xenopus laevis) (UniProt P06897)", "assay": "AUC"}, "[2]": {"molecular_target": "yNap1 C200A/C249A/C272A labelled with Alexa dye at Cys-414 (yNap1m*) (yeast) (UniProt P25293)", "sequence (P25293 whole entry C200A/C249A/C272A)": "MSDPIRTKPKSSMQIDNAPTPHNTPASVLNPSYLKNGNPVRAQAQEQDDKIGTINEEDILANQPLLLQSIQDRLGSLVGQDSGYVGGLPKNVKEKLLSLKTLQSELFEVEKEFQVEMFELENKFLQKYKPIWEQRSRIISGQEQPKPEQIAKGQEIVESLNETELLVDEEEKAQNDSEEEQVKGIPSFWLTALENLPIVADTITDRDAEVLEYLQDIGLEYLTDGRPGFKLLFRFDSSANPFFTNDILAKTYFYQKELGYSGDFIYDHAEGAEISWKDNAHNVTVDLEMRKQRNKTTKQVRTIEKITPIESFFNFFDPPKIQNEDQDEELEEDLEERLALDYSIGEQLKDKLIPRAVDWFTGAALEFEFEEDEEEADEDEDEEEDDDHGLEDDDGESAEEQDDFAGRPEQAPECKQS", "assay": "other fluorescence titration"}, "[3]": {"molecular_target": "H2A/H2B(T112C) dimer, H2B labelled with Alexa dye (Xenopus laevis) (UniProt P06897)", "assay": "other fluorescence titration"}},
  "data": [
    {"substance": "H2A refolded in the absence of H2B (from UniProt P06897 1-130) (natural protein)", "values": [
      {"measurement": "stoichiometry N", "setting": "[1]", "value": 2}
    ]},
    {"substance": "H2A/H2B dimer (major type, wild type) (from UniProt P06897;P02281) (complex)", "values": [
      {"measurement": "stoichiometry N (H2A/H2B dimer per yNap1 monomer)", "setting": "[2]", "value": 1}
    ]},
    {"substance": "Tailless H2A/H2B dimer (from UniProt P06897 15-119) (complex)", "values": [
      {"measurement": "Kd", "setting": "[2]", "value": 2.1, "unit": "nM"}
    ]},
    {"substance": "yeast nucleosome assembly protein 1 (yNap1), wild type (from UniProt P25293 1-417) (natural protein)", "values": [
      {"measurement": "Kd", "setting": "[3]", "value": 1.3, "unit": "nM"},
      {"measurement": "Kd app (yNap1 counted as dimer)", "setting": "[3]", "value": 0.7, "unit": "nM"}
    ]}
  ]
}
